Data taken from US20230094463A1 (TRUEBINDING, published 2023).
Where a chain is given by its changes, count along the chain named.

T1: Gal3 Peptide 7 (AYPGAPGAYPGAPAPGVYPG) (human)
T1 peptide: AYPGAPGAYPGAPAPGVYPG

T2: Gal3 Peptide 1 (ADNFSLHDALSGSGNPNPQG) (human)
T2 peptide: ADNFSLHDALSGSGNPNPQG

T3: Gal3 Peptide 6 (GAYPGQAPPGAYPGAPGAYP) (human)
T3 peptide: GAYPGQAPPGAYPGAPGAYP

B1: 6H6.2D6 (antibody, V domains shown)
VH: QIQLVQSGPELKKPGETVKISCKASGYTFTTYGMSWVKQAPGKGLKWMAWINTYSGVPTYADDFKGRFAFSLETSASTAYLQINNLTNEDTATYFCARGPYAMDYWGQGTSVTVSS
VL: DIQMTQTTSSLSASLGDRVTISCSASQGISNYLNWYQQKPDGTVKLLIYYTSSLHSGVPSRFSGSGSGTDYSLTISNLEPEDIATYYCQQYSELPYTFGSGTKLEIK
B2: 23H9.2E4 (antibody, V domains shown)
VH: B1 VH with G33A, A49G, F64L, T87K
VL: B1 VL with S30N, T51A, E93Q, L94V
B3: 20H5.A3 (antibody, V domains shown)
VH: B1 VH with T17S, T28A, K38Q, A49G, I51V, Y60C, T87R
VL: B1 VL with S22N, G28D, H55L, Y87F, E93K, K103H

Key:
[1] = target: T4, Human Galectin-3 protein (Acro Biosystems, GA3-H5129) (human, UniProt P17931 2-250); assay: ELISA, blocking of INSR binding to coated Gal3
T4 construct: Bought protein; also called Gal3-ECD-His; Gal3-His; not shown: linker-spaced 6-histidine tag

[2] = target: T1, Gal3 Peptide 7 (AYPGAPGAYPGAPAPGVYPG); assay: peptide ELISA (peptide coated)
[3] = target: T2, Gal3 Peptide 1 (ADNFSLHDALSGSGNPNPQG); assay: peptide ELISA (peptide coated)
[4] = target: T4, Human Galectin-3 protein (Acro …); assay: ELISA, blocking of INSR binding to coated Gal3; remark: listed apart in the source
[5] = target: T4, Human Galectin-3 protein (Acro …); assay: SPR (Biacore T200), antibody captured, Galectin-3 as analyte
[6] = target: T4, Human Galectin-3 protein (Acro …); assay: blocking ELISA (Gal3 coated; antibody 3 µg/mL + INSR)
[7] = target: T5, Human GAL3 protein (TrueBinding, QCB200349 / QCB200352; R&D Systems, 8259-GA) (human, UniProt P17931 2-250); assay: blocking ELISA (GAL3 coated; antibody + biotinylated ITGa3)
T5 construct: also called human galectin-3

[8] = target: T1, Gal3 Peptide 7 (AYPGAPGAYPGAPAPGVYPG); assay: peptide ELISA: Gal3 peptide coated on the plate, antibody (hIgG4 S228P) at 5 µg/mL, anti-human IgG-HRP, A450 (Example 18)
[9] = target: T2, Gal3 Peptide 1 (ADNFSLHDALSGSGNPNPQG); assay: as above
[10] = target: T3, Gal3 Peptide 6 (GAYPGQAPPGAYPGAPGAYP); assay: as above
[11] = target: T5, Human GAL3 protein (TrueBinding, …); assay: blocking ELISA (GAL3 coated; antibody + biotinylated ITGaV)
[12] = target: T5, Human GAL3 protein (TrueBinding, …); assay: blocking ELISA (GAL3 coated; antibody + biotinylated ITGb3)
[13] = target: T1, Gal3 Peptide 7 (AYPGAPGAYPGAPAPGVYPG); assay: peptide ELISA (peptide coated; antibody hIgG4 [S228P], 5 µg/mL)
[14] = target: T2, Gal3 Peptide 1 (ADNFSLHDALSGSGNPNPQG); assay: as above
[15] = target: T3, Gal3 Peptide 6 (GAYPGQAPPGAYPGAPGAYP); assay: as above

| Binder | IC50 (read off the curve) [1] [mg/L] | binding result [2] | binding result [3] | Gal3-INSR Blocking @ 3 µg/mL [4] [%] | Kd [5] [nM] | Gal3-INSR binding remaining, % of unblocked sample [6] [%] | percent blockade of GAL3-ITGa3 interaction [7] [%] | binding result [8] | binding result [9] | binding result [10] | percent blockade of GAL3-ITGaV interaction [11] [%] | percent blockade of GAL3-ITGb3 interaction [12] [%] | binding result [13] | binding result [14] | binding result [15] |
| --- | --- | --- | --- | --- | --- | --- | --- | --- | --- | --- | --- | --- | --- | --- | --- |
| B1 | ~0.5 | binds | binds | 100 | 4.86 | < 5 | – | – | – | – | – | – | – | – | – |
| B2 | – | – | – | 100 | 4.26 | < 5 | > 90 | binds | binds | binds | > 90 | > 90 | – | – | – |
| B3 | ~0.5 | – | – | 100 | 3.95 | < 5 | > 90 | – | – | – | > 90 | > 90 | binds | binds | binds |
